Patent publication US20230192834A1

Tests used:
TGFβ1 (R&D Systems) [1] = assay: SPR (Biacore T200), TGFβ amine-coupled to chip, 1:1 fit
TGFβ2 (R&D Systems) [2] = target: T1, TGFβ2 (R&D Systems); assay: as above
T1 sequence (P61812 303-414, species assumed, looked up): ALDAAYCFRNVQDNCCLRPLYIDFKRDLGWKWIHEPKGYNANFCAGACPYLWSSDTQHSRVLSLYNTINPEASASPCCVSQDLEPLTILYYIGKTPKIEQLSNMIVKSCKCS

TGFβ3 (R&D Systems) [3] = target: T2, TGFβ3 (R&D Systems); assay: as above
T2 sequence (P10600 301-412, species assumed, looked up): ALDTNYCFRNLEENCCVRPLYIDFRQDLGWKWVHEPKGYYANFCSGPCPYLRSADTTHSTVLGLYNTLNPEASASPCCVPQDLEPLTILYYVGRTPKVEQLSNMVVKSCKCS

TGFβ1 (R&D Systems) [4] = assay: cell-based or functional assay
TGFβ2 (R&D Systems) [5] = target: T1, TGFβ2 (R&D Systems); assay: cell-based or functional assay
TGFβ3 (R&D Systems) [6] = target: T2, TGFβ3 (R&D Systems); assay: cell-based or functional assay

Sequence of TGFβ1 (R&D Systems) (P01137 279-390): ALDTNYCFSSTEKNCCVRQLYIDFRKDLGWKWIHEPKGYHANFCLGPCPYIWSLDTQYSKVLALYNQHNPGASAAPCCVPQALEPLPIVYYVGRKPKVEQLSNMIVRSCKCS

Row | Binder | Kd (TGFβ1 (R&D Systems) [1]) | Kd (TGFβ2 (R&D Systems) [2]) | Kd (TGFβ3 (R&D Systems) [3]) | TGFb1 IC50 (SMAD3 phosphorylation in CMVICs, AlphaLISA) (TGFβ1 (R&D Systems) [4]) | TGFb2 IC50 (SMAD3 phosphorylation in CMVICs, AlphaLISA) (TGFβ2 (R&D Systems) [5]) | TGFb3 IC50 (SMAD3 phosphorylation in CMVICs, AlphaLISA) (TGFβ3 (R&D Systems) [6])
1 | Felinized anti-TGFβ1,2,3 antibody VH3.2 - VL3 (antibody, V domains shown) VH: DVQLVESGGDLVKPGGSLRLTCVASGYTFSSNVMHWVRQAPGKGLQWVAYVIPIVDIAYYADSVKGRFTISIDNSKNTLYLQMNSLKTEDTATYYCARTLGLVLDAMDYWGQGTLVTVSS VL: EIQMTQSPSSLSASPGDRVTITCRASQSLGSSYLAWYQQKPGKVPKLLIYGASSRAPGVPSRFSGSGSGTDFTLTISSLEPEDAATYYCQQYADSPITFGQGTKLEIKR | 0.66 nM | 0.751 nM | 0.144 nM | 0.132 mg/L | 0.14 mg/L | 0.023 mg/L
2 | Felinized anti-TGFβ1,2,3 antibody VH2.2 - VL7 (antibody, V domains shown) VH: QVLLVQSGADVRKPGASVKIFCKASGYTFSSNVMHWVRQTPAQGFEWMGSVIPIVDIATYARRFQGRLVLTADTSTNTAYMELRSLKSADTAVYYCARTLGLVLDAMDYWGQGSLVTVSS VL: DIVLTQPPSLSVNLGQTARITCRASQSLGSSYLAWYQQKPGQAPKLVTYGASSRAPGIPDRFSGTNSGITATLTISGARAEDEADYYCQQYADSPITFGQGTKLEIKR | 4.95 nM | 2.16 nM | 3.52 nM | 4.59 mg/L | 20.6 mg/L | 2.2 mg/L
3 | Felinized anti-TGFβ1,2,3 antibody VH3.2 - VL7 (antibody, V domains shown) VH: DVQLVESGGDLVKPGGSLRLTCVASGYTFSSNVMHWVRQAPGKGLQWVAYVIPIVDIAYYADSVKGRFTISIDNSKNTLYLQMNSLKTEDTATYYCARTLGLVLDAMDYWGQGTLVTVSS VL: DIVLTQPPSLSVNLGQTARITCRASQSLGSSYLAWYQQKPGQAPKLVTYGASSRAPGIPDRFSGTNSGITATLTISGARAEDEADYYCQQYADSPITFGQGTKLEIKR | 0.857 nM | 0.589 nM | 0.434 nM | 0.139 mg/L | 0.048 mg/L | 0.018 mg/L
4 | Felinized anti-TGFβ1,2,3 antibody VH3.8 - VL7 (antibody, V domains shown) VH: QVQLVQSGAEVKKPGSSVKVSCKASGYTFSSNVISWVRQAPGKGLQWVAGVIPIVDIANYAQRFKGRFTISIDNSKNTLYLQMNSLKTEDTATYYCASTLGLVLDAMDYWGQGTLVTVSS VL: DIVLTQPPSLSVNLGQTARITCRASQSLGSSYLAWYQQKPGQAPKLVTYGASSRAPGIPDRFSGTNSGITATLTISGARAEDEADYYCQQYADSPITFGQGTKLEIKR | 3.07 nM | 1.94 nM | 0.635 nM | 1.36 mg/L | 2.67 mg/L | 0.204 mg/L
5 | Felinized anti-TGFβ1,2,3 antibody VH2.1 - VL8 (antibody, V domains shown) VH: QVLLVQSGADVRKPGASVKIFCKASGYTFTSNVISWVRQTPAQGFEWMGGVIPIVDIANYAQRFKGRLVLTADTSTNTAYMELRSLKSADTAVYYCASTLGLVLDAMDYWGQGSLVTVSS VL: DIVMTQSPGSLAGSPGQQVTMNCRASQSLGSSYLAWYQQKPGQHPELLIYGASSRAPGVPDRFSGSGSGTDFTLTISNLQAEDVANYYCQQYADSPITFGQGTKLEIKR | 3.31 nM | 3.41 nM | 1.06 nM | 0.266 mg/L | 0.031 mg/L | 0.124 mg/L
6 | Felinized anti-TGFβ1,2,3 antibody VH3.2 - VL8 (antibody, V domains shown) VH: DVQLVESGGDLVKPGGSLRLTCVASGYTFSSNVMHWVRQAPGKGLQWVAYVIPIVDIAYYADSVKGRFTISIDNSKNTLYLQMNSLKTEDTATYYCARTLGLVLDAMDYWGQGTLVTVSS VL: DIVMTQSPGSLAGSPGQQVTMNCRASQSLGSSYLAWYQQKPGQHPELLIYGASSRAPGVPDRFSGSGSGTDFTLTISNLQAEDVANYYCQQYADSPITFGQGTKLEIKR | 0.971 nM | 2.13 nM | 0.0466 nM | 0.072 mg/L | 0.037 mg/L | 0.008 mg/L
7 | Felinized anti-TGFβ1,2,3 antibody VH3.2 - VL1 (antibody, V domains shown) VH: DVQLVESGGDLVKPGGSLRLTCVASGYTFSSNVMHWVRQAPGKGLQWVAYVIPIVDIAYYADSVKGRFTISIDNSKNTLYLQMNSLKTEDTATYYCARTLGLVLDAMDYWGQGTLVTVSS VL: ETVLTQSPGTLSLSPGERATLSCRASQSLGSSYLAWYQQKPGQAPRLLIYGASSRAPGIPDRFSGSGSGTDFTLTISRLEPEDFAVYYCQQYADSPITFGQGTKLEIKR | 0.333 nM | 1.84 nM | 0.0051 nM | 0.797 mg/L | 0.19 mg/L | 0.053 mg/L
